Two molecules from PMC10868436, “Discovery of broadly‐neutralizing antibodies against brown recluse spider and Gadim scorpion sphingomyelinases using consensus toxins as antigens” (Protein Science : A Publication of the Protein Society, 2024) can be followed below.

Test [1] concerns the target T1, recombinant SMase from L. rufescens (Loxosceles rufescens, UniProt C0JB02).
T1 construct: also called rLr; recombinant sphingomyelinase from Loxosceles rufescens; source: E. coli BL21(DE3), purified (HisPur Ni-NTA)
The experiment in a line: BLI; ForteBio Octet RED96, […]; 1:1 binding model, […]; triplicate. Conditions: both partners purified. (In general: Biolayer interferometry detects binding as a change in optical thickness at a sensor tip.)

Test [2] addresses T2, recombinant SMase from H. lepturus (Hemiscorpius lepturus, UniProt A0A1L4BJ98).
T2 construct: also called rHl; recombinant sphingomyelinase from Hemiscorpius lepturus; source: E. coli BL21(DE3), purified (HisPur Ni-NTA)
The test is described as above. The settings on record: both partners purified.

T1 sequence (C0JB02 whole entry, looked up): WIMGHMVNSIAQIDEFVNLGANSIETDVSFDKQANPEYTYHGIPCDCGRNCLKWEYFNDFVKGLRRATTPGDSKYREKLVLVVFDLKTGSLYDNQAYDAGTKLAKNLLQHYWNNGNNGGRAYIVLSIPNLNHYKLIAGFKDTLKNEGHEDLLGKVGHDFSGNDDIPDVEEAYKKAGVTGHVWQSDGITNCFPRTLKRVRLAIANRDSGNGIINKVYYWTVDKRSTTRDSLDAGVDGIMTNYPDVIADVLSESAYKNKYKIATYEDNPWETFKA
T2 sequence (A0A1L4BJ98 whole entry, looked up): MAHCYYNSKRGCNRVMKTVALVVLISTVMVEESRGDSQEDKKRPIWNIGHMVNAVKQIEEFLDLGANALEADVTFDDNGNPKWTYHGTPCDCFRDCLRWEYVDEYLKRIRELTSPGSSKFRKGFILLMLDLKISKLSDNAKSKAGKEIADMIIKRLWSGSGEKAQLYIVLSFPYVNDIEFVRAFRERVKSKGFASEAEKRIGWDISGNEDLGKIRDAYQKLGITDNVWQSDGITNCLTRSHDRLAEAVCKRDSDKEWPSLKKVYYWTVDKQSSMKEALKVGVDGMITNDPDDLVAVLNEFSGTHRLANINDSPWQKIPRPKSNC

B1: TPL0674_03_F05 (scFv, V domains shown)
VH: EVQLVQSGAEVKKPGASVRVSCKASGYSITNYGISWVRQAPGQGLEWMGWINTYNGNTNYAQKFQGRVTMTRDTSISTAYMELSRLRSDDTAVYYCARDHPYRGMDVWGQGTLVTVSS
VL: SYELTQDPAVSVALGQTVRITCQGDSLRSYYASWYQQKPGQAPVLVIYGKNNRPSGIPDRFSGSSSGNTASLTITGAQAEDEADYYCNSRDSSGNHPHVVFGGGTKLTVL
notes: also called scFv TPL0674_03_F05
For the molecule B1, the Kd amounted to 80.4 nM in test [1] and 51.6 nM in test [2].

B2: TPL0674_03_A04 (scFv, V domains shown)
VH: QVQLVQSGSELKKPGASVKVSCKASGYTFTSYAMNWVRQAPGQGLEWMGWINTNTGNPTYAQGFTGRFVFSLDTSVSTAYLQISSLKAEDTAVYYCARDQGGDRHFGYWGQGTTVTVSS
VL: QSELTQPPSASGTPGQRVTISCSGSSSNIGSHRVNWYQQLPGTAPKLLIYSNYHRPAGVPDRFSASKSGTSASLAISGLQSEDEADYYCAAWDDSLNGYVFGTGTQLTVL
notes: also called scFv TPL0674_03_A04
Regarding B2, the Kd stood at 66.9 nM in test [1] and 45.3 nM in test [2].

By Kd is commonly meant the equilibrium constant for the complex coming apart.
